Experiments:
Test in all cases: MST; 200 nM RED-NHS-labelled 6×His–TTP1 constant, decreasing amounts of the binding partner; phosphate-buffered saline; Monolith NT.115, standard capillaries, excitation 100%, MST power 40%; Kd fit for 1:1 stoichiometry
Conditions in all cases: both partners purified
[1] = biological target: T1, recombinant His-tagged full-length GluTR1 (Arabidopsis, UniProt P42804 62-543)
T1 construct: glutamyl-tRNA reductase 1 (HEMA1), Arabidopsis; called full-length GluTR1 in the legend; source: recombinant, His-tagged

[2] = biological target: T2, recombinant His-tagged PORC (Arabidopsis, UniProt O48741 68-401)
T2 construct: protochlorophyllide oxidoreductase C, Arabidopsis; source: recombinant, His-tagged
T2 sequence (looked up): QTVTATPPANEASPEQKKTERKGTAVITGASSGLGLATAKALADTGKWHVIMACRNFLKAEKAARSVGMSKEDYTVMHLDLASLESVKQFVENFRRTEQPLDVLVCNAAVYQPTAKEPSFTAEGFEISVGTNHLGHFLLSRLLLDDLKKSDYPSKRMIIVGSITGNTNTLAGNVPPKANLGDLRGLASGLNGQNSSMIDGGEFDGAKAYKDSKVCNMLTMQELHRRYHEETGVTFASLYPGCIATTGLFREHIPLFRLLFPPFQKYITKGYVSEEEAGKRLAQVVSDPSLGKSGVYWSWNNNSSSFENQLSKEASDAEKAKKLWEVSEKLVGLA

[3] = biological target: T3, recombinant His-tagged GluTR-binding protein (GBP) (Arabidopsis, UniProt Q9LU39 43-317)
T3 construct: source: recombinant, His-tagged
T3 sequence (looked up): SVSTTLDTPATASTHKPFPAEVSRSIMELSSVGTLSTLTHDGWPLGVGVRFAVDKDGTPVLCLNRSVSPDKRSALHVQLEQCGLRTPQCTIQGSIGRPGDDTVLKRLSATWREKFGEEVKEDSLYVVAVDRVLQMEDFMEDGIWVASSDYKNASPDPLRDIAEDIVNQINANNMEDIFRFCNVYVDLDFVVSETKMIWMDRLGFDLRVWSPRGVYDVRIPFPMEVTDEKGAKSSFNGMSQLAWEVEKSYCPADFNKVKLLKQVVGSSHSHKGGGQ

[4] = biological target: T4, recombinant His-tagged PORB (Arabidopsis, UniProt P21218 67-401)
T4 construct: protochlorophyllide oxidoreductase B, Arabidopsis; source: recombinant, His-tagged
T4 sequence (looked up): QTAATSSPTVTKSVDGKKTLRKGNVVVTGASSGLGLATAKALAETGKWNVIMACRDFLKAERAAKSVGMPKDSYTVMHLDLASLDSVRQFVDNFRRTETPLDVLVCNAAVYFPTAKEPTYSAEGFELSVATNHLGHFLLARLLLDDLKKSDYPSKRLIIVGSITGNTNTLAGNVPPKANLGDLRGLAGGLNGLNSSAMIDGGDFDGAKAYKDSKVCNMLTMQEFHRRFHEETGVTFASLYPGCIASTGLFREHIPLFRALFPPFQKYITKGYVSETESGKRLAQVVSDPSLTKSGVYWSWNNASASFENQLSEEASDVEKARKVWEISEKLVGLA

- Kd [1]: < 1000 nM
- Kd [2]: < 1000 nM
- Kd [3]: < 1000 nM
- Kd [4]: < 1000 nM
B1: recombinant 6×His-tagged TTP1, RED-NHS labelled (natural protein)
chain: MLMTLAATTSVSFNSKLLLFRIRCSDSNPKRGFGSKKEEKDPALQQRKSSSKQSVSVPRKAPGLNTQFEGKSGRSFDIDFDERLENIRRSALEQKKTEVVKEFGPIDYDAPVKSDQKTIGLGTKVGVGIAVVVFGLVFALGDFLPTGSDSPTKNTTVVKNQISEEEKATLQQRLKEFETTLNGTPQDQAALEGAAVTLTELGDYSRAAAFLEKLAKERPTDPDVFRLLGEVNYELNNYEGSIAAYKISEKVSKGIDLEVTRGLMNAYLAAKKPDEAVKFLLDTRERLNTKKTSTTDSVTDETNLDPIQVELLLGKAYSDWGHISDAIAVYDQLISAHPEDFRGYLAKGIILRENGSRGDAERMFIQARFFAPNKAKALVDRYSKL
modifications: labelled with the RED-NHS Protein Labeling Kit, degree of labeling approximately 1.0

— PMC10967246, “A novel tetratricopeptide-repeat protein, TTP1, forms complexes with glutamyl-tRNA reductase and protochlorophyllide oxidoreductase during tetrapyrrole biosynthesis” (Journal of Experimental Botany, 2023)
